Biological target: T1, HA-tagged APOBEC3G (human, UniProt Q9HC16 1-384)
T1 construct: APOBEC3G (A3G), human cytidine deaminase, expressed from pA3G-HA; The plasmid pA3G-HA is not described in the Plasmids section; also called A3G-HA; A3G; source: HEK 293T, transfected (pA3G-HA), in lysate
Test: co-IP; HEK 293T cells co-transfected with pA3G-HA and wild-type or mutant Vif plasmids; lysed in RIPA 1X 24 h post-transfection; anti-HA antibody 2 h at 4 °C, protein A Dynabeads 1.5 h at 4 °C, 5 washes with cold RIPA; western blot with anti-Vif
Conditions: partners not purified

T1 sequence (Q9HC16 whole entry): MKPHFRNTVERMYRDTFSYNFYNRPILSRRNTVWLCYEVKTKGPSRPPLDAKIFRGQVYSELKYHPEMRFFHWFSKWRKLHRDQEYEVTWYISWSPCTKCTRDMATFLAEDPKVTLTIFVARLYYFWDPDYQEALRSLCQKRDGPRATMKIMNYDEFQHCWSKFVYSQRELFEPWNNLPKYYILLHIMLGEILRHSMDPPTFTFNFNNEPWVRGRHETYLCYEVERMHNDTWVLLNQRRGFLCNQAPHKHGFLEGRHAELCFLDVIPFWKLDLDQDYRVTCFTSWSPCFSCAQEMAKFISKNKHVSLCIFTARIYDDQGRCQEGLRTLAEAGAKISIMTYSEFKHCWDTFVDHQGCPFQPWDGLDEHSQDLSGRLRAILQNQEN

B1: Vif H42/43N (natural protein)
chain: not shown
notes: Vif of HIV-1 NL4.3 (codon-optimized pcDNAhVif) with the mutations H42N and H43N; also called H42/H43-N; Vif mutant H42/43N; source: HEK 293T, transfected (pcDNAhVif mutant), in lysate
B1 was tested, and the “fold decrease of binding against wild-type Vif” value was ~2 fold.

— article PMC5171582, “Translational regulation of APOBEC3G mRNA by Vif requires its 5′UTR and contributes to restoring HIV-1 infectivity” (Scientific Reports, 2016)
